The target of series [1] is T1, K63-Ub2 (Homo sapiens, UniProt P0CG47, K63R).
T1 construct: Ub and K48- and K63-linked diUb and tetraUb were made as described; made in house
As to the kind of experiment: Fluorescence anisotropy binding of fluorescent tUIM peptides to K63-Ub2. The settings on record: for Kd: fluorescence anisotropy, single-site fit, 25° C., pH 7.4. An excerpt: (§1) Fluorescent Labeling. Rap80 tUIM peptides were fluorescently-labeled on the sulfhydryl group of C121 (see FIG. 1). For longer Rap80 constructs, all cysteines except C121 were mutated to serine for site-specific labeling. Ataxin-3 and Vps27 UIM peptides were labeled on a single cysteine introduced at the C-terminus. Fluorescein-5-maleimide (Pierce) was coupled to cysteines following the manufacturer's instructions. After desalting through Sephadex G-25 resin, fluorescein-labeled tUIM peptides were separated from unlabeled peptides by anion-exchange chromatography (MonoQ column, GE Biosciences) by elution with a NaCl gradient in 50 mM Tris buffer, pH 7.9. The labeled peptides were essentially 100% pure by SDS-PAGE and Coomassie blue staining, and MALDI-TOF mass spectrometry confirmed the addition of a single fluorescein moiety. Fluorescence Anisotropy Binding Assays. Fluorescence anisotropy measurements were made using a Fluoromax 4 fluorometer in L format, thermostatted at 25° C. Excitation and emission monochromators were set at 492 nm and 520 nm, respectively. Slit widths were 3 nm for diUb-binding assays ([…]) or 6 nm for tetraUb-binding assays ([…]). Anisotropies were calculated by the instrument software, and the overall intensity of the fluorescence signal was monitored at each point with the polarizers oriented at the magic angle. All measurements were made in fluorescence buffer (25 mM Na phosphate [pH 7.4], 150 mM NaCl, 5 mM β-mercaptoethanol, 1 mM EDTA, and either 0.005% surfactant P20 (BIACORE) or 0.05% Brij35). Concentrations of the fluorescent proteins were calculated using the fluorescein extinction coefficient at 494 nm, 68000 M^-1 cm^-1. (poly)Ub concentrations were assessed by absorbance at 280 nm using the extinction coefficient 0.16 (mg/ml)^-1 cm^-1 ([…] and Raasi, 2005). Fluorescence anisotropy data were fit with a single-site binding model as described (Wilkinson, 2004). The equilibrium constants for wild-type Vps27 peptide binding to K63 and K48 Ub4 were determined by competition with the fluorescent Vps27 7aa linker peptide as described (Wilkinson, 2004).
On the technique in general: In fluorescence polarisation assays a small probe gives low polarisation when free and higher when bound to something large.

For another series, the target named is K48-Ub4. As to the kind of experiment: Fluorescence anisotropy binding of fluorescent tUIM peptides to K48-Ub4.
Excerpt: as §1

Another series deals with T2, K48-Ub2 (Homo sapiens, UniProt P0CG47, K48R).
T2 construct: Ub and K48- and K63-linked diUb and tetraUb were made as described; made in house
As to the kind of experiment: Fluorescence anisotropy binding of fluorescent tUIM peptides to K48-Ub2. The settings on record: single-site fit, 25° C., pH 7.4.

Series [2] concerns the target T3, K63-Ub4 (Homo sapiens, UniProt P0CG47, K63R).
T3 construct: Ub and K48- and K63-linked diUb and tetraUb were made as described; made in house
As to the kind of experiment: Fluorescence anisotropy binding of fluorescent tUIM peptides to K63-Ub4.
Excerpt: as §1

In series [3] the test system is K63-Ub4. The series is described as above.
Excerpt: as §1

Series [4] relates to K63-Ub2. As to the kind of experiment: Fluorescence anisotropy binding of fluorescent tUIM peptides to K63-Ub2.
Excerpt: as §1

Series [5] in a line: CD measurements of helical content of tUIM peptides. The settings on record: whole-spectrum interpretation of CD; peptide without vector-derived residues. It is filed as physicochemical. The procedure:
Measurements of 3 samples were collected and are shown in FIG. 2D: (1) 153 μM Rap80 tUIM alone, (2) 153 μM K63-Ub2 alone, and (3) a mixture of 153 μM Rap80 tUIM with 153 μM K63-Ub2. The contribution of Rap80 tUIM to spectrum (3) was sought, so that the helical content of the bound tUIM could be estimated. […] Therefore, the difference between spectrum (3) and spectrum (2) will give the contribution from Rap80 tUIM to the total CD spectrum of the Rap80-K63-Ub2 mixture. (A) The spectrum of unbound Rap80 [spectrum (1)] is shown here as triangles. The contribution of Rap80 to spectrum (3) was calculated as (3)−(2), and is shown here as squares. Because the mixture of Rap80 with K63-Ub2 is not at saturating concentrations, bound and unbound Rap80 are both present in the solution. The observed helical fraction (Hmix) for this complex mixture can be described by:
Where Fbound and Funbound are the fractions of the bound and unbound forms of Rap80 present in the mixture, respectively, and Hbound and Hunbound are the helical contents of the bound and unbound forms of Rap80, respectively. […] (B) Shown here is a summary of the secondary structure predictions from two methods and the corresponding Hbound values calculated as described above. […]
CD Measurements. […] Peptide concentrations were independently determined before each CD reading from absorbance measurements (fluorescein) of samples in the CD cuvette.

Setting [6] is: fluorescence anisotropy, single-site fit, 25° C., pH 7.4.
Setting [7] is: determined by competition with the fluorescent Vps27 7aa linker peptide.
Setting [8] is: fluorescence anisotropy Kd values.

Protocol for K48-Ub2: Fluorescence Anisotropy Binding Assays. Fluorescence anisotropy measurements were made using a Fluoromax 4 fluorometer in L format, thermostatted at 25° C. Excitation and emission monochromators were set at 492 nm and 520 nm, respectively. Slit widths were 3 nm for diUb-binding assays (1 mM fluorophore) or 6 nm for tetraUb-binding assays (0.1 mM fluorophore). Anisotropies were calculated by the instrument software, and the overall intensity of the fluorescence signal was monitored at each point with the polarizers oriented at the magic angle. All measurements were made in fluorescence buffer (25 mM Na phosphate [pH 7.4], 150 mM NaCl, 5 mM β-mercaptoethanol, 1 mM EDTA, and either 0.005% surfactant P20 (BIACORE) or 0.05% Brij35). Concentrations of the fluorescent proteins were calculated using the fluorescein extinction coefficient at 494 nm, 68000 M^-1 cm^-1. (poly)Ub concentrations were assessed by absorbance at 280 nm using the extinction coefficient 0.16 (mg/ml)^-1 cm^-1 ([…] and Raasi, 2005). Fluorescence anisotropy data were fit with a single-site binding model as described (Wilkinson, 2004).

B1: Vps27 7aa linker: Vps27 UIMs connected with 7-residue linker RAEEKVK (protein)
peptide: PSSHHHHHHSSGLVPRGSHMEEEEDPDLKAAIQESLREARAEEKVKEDEEELIRKAIELSLKESRNCA
The Kd is the constant that tells how readily two partners part at equilibrium. Read a high Kd as a looser complex. Turning to B1, the Kd with K63-Ub2 [1] turned out to be 2.2 µM; on K48-Ub4 (setting [6]), 6.5 µM; with K48-Ub2, 98 µM; in the series with K63-Ub4 [2] (setting [6]), 0.62 µM.

B2: Vps27 (WT): yeast Vps27 tandem UIM peptide with unstructured 25-residue linker (protein)
peptide: PSSHHHHHHSSGLVPRGSHMDRDYSTPEDEEELIRKAIELSLKESRNSASSEPIVPVVESKNEVKRQEIEEEEDPDLKAAIQESLREAEEAKLRSERQKAC
In the case of B2, the dissociation constant Kd with K63-Ub2 [1] turned out to be 67 µM; at K48-Ub4 (setting [7]) it was 31 µM; in the series with K48-Ub2 it was 211 µM; with K63-Ub4 [2] (setting [7]), 29 µM. Further, the “binding of K63-Ub4 versus K48-Ub4” value with K63-Ub4 [3] (fluorescence anisotropy) is given as “indistinguishably”.

B3: Rap80 (WT): His6-tagged human Rap80 tandem UIM peptide, linker REVNSQE, fluorescein-labeled on C121; sequence in Table 1 (protein)
peptide: PSSHHHHHHSSGLVPRGSHMTEEEQFALALKMSEQEAREVNSQEEEEEELLRKAIAESLNSC(fluorescein)RPS
For B3, in the series with K63-Ub2 [1], the Kd worked out at 21.6 ± 0.8 µM. Further, the “preference for K63-Ub2 over monoUb” value in the series on K63-Ub2 [4] (setting [8]) worked out at 24 fold. In addition, the “preference for K63-Ub2 over K48-Ub2” value with K63-Ub2 [4] (from Kd values) came to 7 fold. Moreover, in series [5], the “α-helical content, K63-Ub2-bound form” value is reported as roughly 100% and the “α-helical content, unbound form” value is 30%-35%. In the series on K48-Ub4 (setting [8]), the “bound K48-Ub4 tighter than K48-Ub2” value is recorded as “more than 11 times”.

B4: ataxin-3 Rap80 linker: ataxin-3 UIMs spliced together with the Rap80 linker REVNSQE (protein)
peptide: PSSHHHHHHSSGLVPRGSHMDEDEEDLQRALALSRQEIREVNSQEEDEEADLRRAIQLSMQGSSRNC
For the molecule B4, the Kd with K63-Ub2 [1] is 60 µM; on K48-Ub4 (setting [6]), 7.8 µM; with K48-Ub2, 160 µM; with K63-Ub4 [2] (setting [6]) it was 11 µM.

B5: ataxin-3 7A linker: ataxin-3 UIMs joined by a 7-alanine linker (protein)
peptide: PSSHHHHHHSSGLVPRGSHMDEDEEDLQRALALSRQEIAAAAAAAEDEEADLRRAIQLSMQGSSRNC
With B5, the results for the Kd with K63-Ub2 [1], on K48-Ub4 (setting [6]) and in the series with K48-Ub2 were 17 µM, 9.3 µM and 140 µM, respectively.

B6: Rap80 6aa linker: Rap80 tUIM peptide with 6-residue linker REVAAE (protein)
peptide: PSSHHHHHHSSGLVPRGSHMTEEEQFALALKMSEQEAREVAAEEEEEELLRKAIAESLNSCRPS
As for B6, the results for the Kd with K63-Ub2 [1] and with K48-Ub2 were 87 µM and 160 µM, respectively.

B7: Rap80 7A linker: Rap80 UIMs linked by 7 alanine residues (protein)
peptide: PSSHHHHHHSSGLVPRGSHMTEEEQFALALKMSEQEAAAAAAAAEEEEELLRKAIAESLNSCRPS
With B7, in the series with K63-Ub2 [1] (Table 2 Kd values), the “binds K63-Ub2 more tightly than Rap80 with the wild-type linker” value is 6 fold. Besides, the figures for the Kd with K63-Ub2 [1] and with K48-Ub2 were 3.6 µM and 160 µM, respectively.

B8: Rap80 S101E: Rap80 tUIM peptide, linker REVNEQE (protein)
peptide: PSSHHHHHHSSGLVPRGSHMTEEEQFALALKMSEQEAREVNEQEEEEEELLRKAIAESLNSCRPS
B8: the figures for the Kd with K63-Ub2 [1] and with K48-Ub2 were 16 µM and 170 ± 5 µM, respectively.

B9: Rap80 ARLEEKV: Rap80 tUIM peptide, linker ARLEEKV (protein)
peptide: PSSHHHHHHSSGLVPRGSHMTEEEQFALALKMSEQEAARLEEKVEEEEELLRKAIAESLNSCRPS
Turning to B9, the Kd with K63-Ub2 [1] amounted to 17 µM; in the series with K48-Ub2 it was 230 µM.

B10: unlabeled Rap80 tUIM peptide: unlabeled version of the fluorescent Rap80 tUIM peptide (protein)
peptide: PSSHHHHHHSSGLVPRGSHMTEEEQFALALKMSEQEAREVNSQEEEEEELLRKAIAESLNSCRPS
As usually defined, the Ki is the dissociation constant of the complex between target and ligand, obtained from inhibition or displacement. Turning to B10, the Ki with K63-Ub2 [1] (unlabeled peptide titrated against fluorescent Rap80 tUIM peptide at saturating K63-Ub2, read-out: Ki for the binding inhibition) turned out to be 24 µM.

B11: Rap80 DLKAAIQ: Rap80 tUIM peptide, linker DLKAAIQ (protein)
peptide: PSSHHHHHHSSGLVPRGSHMTEEEQFALALKMSEQEADLKAAIQEEEEELLRKAIAESLNSCRPS
Turning to B11, the Kd in the series with K63-Ub2 [1] came out at 10 µM; with K48-Ub2, 129 ± 5 µM.

B12: Rap80 S101A: Rap80 tUIM peptide, linker REVNAQE (protein)
peptide: PSSHHHHHHSSGLVPRGSHMTEEEQFALALKMSEQEAREVNAQEEEEEELLRKAIAESLNSCRPS
For B12, the Kd with K63-Ub2 [1] was 11 µM; with K48-Ub2 it was 152 ± 6 µM.

B13: Rap80 2 x linker: Rap80 tUIM peptide with 14-residue linker REVNSQEREVNSQE (protein)
peptide: PSSHHHHHHSSGLVPRGSHMTEEEQFALALKMSEQEAREVNSQEREVNSQEEEEEELLRKAIAESLNSCRPS
Turning to B13, the Kd in the series with K63-Ub2 [1] was determined as 150 µM; with K48-Ub2, 170 µM.

B14: Rap80 (residues 1-233): N-terminal 233 residues of Rap80, fluorescently labeled on the same UIM cysteine (protein)
chain: MPRRKKKVKEVSESRNLEKKDVETTSSVSVKRKRRLEDAFIVISDSDGEEPKEENGLQKTKTKQSNRAKSLAKRKIAQMTEEEQFALALKMSEQEAREVNSQEEEEEELLRKAIAESLNSCRPSDASATRSRPLATGPSSQSHQEKTTDSGLTEGIWQLVPPSLFKGSHISQGNEAEEREEPWDHTEKTEEEPVSGSSGSWDQSSQPVFENVNVKSFDRSTGHSAEHTQSGKP
Take B14: the “preference for K63-Ub4 over K48-Ub4” value with K63-Ub4 [3] (solution fluorescence anisotropy) stood at 7 fold.
